The source of these data is publication PMC2688778 (Structure (London, England : 1993), 2009).

What is called Kd is the constant that tells how readily two partners part at equilibrium. A lower Kd goes with tighter binding.

Holding throughout (test): fluorescence anisotropy
One data set addresses T1, RecE564 W859A (Escherichia coli K12, UniProt P15032 564-866, W859A).
T1 sequence: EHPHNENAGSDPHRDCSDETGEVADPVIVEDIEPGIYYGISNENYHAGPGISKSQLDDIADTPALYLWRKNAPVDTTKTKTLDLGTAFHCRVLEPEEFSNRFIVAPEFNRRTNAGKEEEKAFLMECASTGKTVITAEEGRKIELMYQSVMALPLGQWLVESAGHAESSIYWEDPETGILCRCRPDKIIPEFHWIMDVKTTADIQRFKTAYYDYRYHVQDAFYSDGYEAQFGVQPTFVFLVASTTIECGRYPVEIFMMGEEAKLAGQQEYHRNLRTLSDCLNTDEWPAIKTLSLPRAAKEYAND

For another data set, the target named is T2, RecE564 T675A (Escherichia coli K12, UniProt P15032 564-866, T675A).
T2 sequence: T1 sequence with T112A, A296W

Another data set has as its target T3, RecE564 S615A (Escherichia coli K12, UniProt P15032 564-866, S615A).
T3 sequence: T1 sequence with S52A, A296W

In the next data set the target is T4, RecE606 P658L (Escherichia coli K12, UniProt P15032 606-866, P658L).
T4 sequence: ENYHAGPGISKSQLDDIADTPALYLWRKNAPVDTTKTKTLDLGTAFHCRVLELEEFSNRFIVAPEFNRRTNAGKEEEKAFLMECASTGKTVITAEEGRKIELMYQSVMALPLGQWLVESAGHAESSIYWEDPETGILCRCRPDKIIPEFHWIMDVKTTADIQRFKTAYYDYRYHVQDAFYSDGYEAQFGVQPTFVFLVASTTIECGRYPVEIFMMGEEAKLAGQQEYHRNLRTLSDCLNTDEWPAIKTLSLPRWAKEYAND

A further data set deals with T5, RecE564 del858-866 (Escherichia coli K12, UniProt P15032 564-857, del858-866).
T5 sequence: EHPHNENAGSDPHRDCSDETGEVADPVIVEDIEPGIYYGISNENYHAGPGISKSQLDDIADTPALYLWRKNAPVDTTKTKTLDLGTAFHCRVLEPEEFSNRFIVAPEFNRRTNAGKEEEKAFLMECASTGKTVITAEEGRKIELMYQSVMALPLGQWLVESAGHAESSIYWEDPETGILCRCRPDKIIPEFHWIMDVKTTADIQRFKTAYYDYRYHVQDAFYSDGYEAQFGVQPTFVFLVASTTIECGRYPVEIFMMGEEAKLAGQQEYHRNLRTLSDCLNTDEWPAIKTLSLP

Another data set has as its target T6, RecE564 R858A (Escherichia coli K12, UniProt P15032 564-866, R858A).
T6 sequence: T1 sequence with R295A, A296W

The target in the next data set is T7, RecE564 S617A (Escherichia coli K12, UniProt P15032 564-866, S617A).
T7 sequence: T1 sequence with S54A, A296W

Substitutions are numbered along the chain they refer to.

B1: F25 (dsDNA)
DNA 1: TAGAGCTTAATTGCTGAATCTGGTG
DNA 2: CACCAGATTCAGCAATTAAGCTCTA
On to B1, for which the Kd in the data set with RecE564 W859A came out at 350 ± 20 nM; with RecE564 T675A, 650 ± 30 nM; with RecE564 S615A, 100 ± 4 nM; in the data set with RecE606 P658L, 110 ± 20 nM; in the data set with RecE564 del858-866, 660 ± 80 nM; in the data set with RecE564 R858A, 77 ± 5 nM. The molecule also came in with a Kd with RecE564 S617A of 150 ± 20 nM.
